From publication PMC11806408

Target: N‐10/C‐9 fusion PD (human)
Experiment: SPR; PDs of BMP‐9, BMP‐10 and N‐10/C‐9 fusion PD immobilised at 450 RUs on a CM5 chip by amine coupling; BMP‐10 GF 0 to 80 nM, 1:2 serial dilutions, 1× HBS‐EP; 1:1 model with mass transfer; apparent KD = kd/ka

Kd: 13.2 nM
koff: 0.0032 s⁻¹
kon: 220000 M⁻¹ s⁻¹
B1: BMP‐10 GF (R&D Systems #2926‐BP‐025/CF) (ligand)
chain: NAKGNYCKRTPLYIDFKEIGWDSWIIAPPGYEAYECRGVCNYPLAEHLTPTKHAIIQALVHLKNSQKASKACCVPTKLEPISILYLDKGVVTYKFKYEGMAVSECGCR
